In patent US8084228B2, “Nogo-B receptor antagonists” (Yale University, priority 2006, dated 2011):

How the values were obtained:
A549 cells [1] = test: Growth in culture of A549 cells engineered to secrete Am-Nogo-B; assay type: cell-based, human; settings: A549 cells secreting Am-Nogo-B versus vector control
Description: Human A549 cells were stably transfected with vector alone (control) or a vector encoding a secreted form of Am-Nogo-B. The production of Am-Nogo-B and the effects on A549 cell growth in culture were examined.

[2] = tested on: CHO cells expressing NgBR; test: Chemotaxis of CHO cells and CHO cells expressing NgBR in a Boyden chamber; assay type: cell-based; settings: CHO cells versus CHO cells expressing NgBR
Protocol: (§1) Cell migration was examined in modified Boyden chambers using 10 nM each of purified recombinant AP, AP fusion of Nogo-66 (AP-Nogo-66) or Am-Nogo-B. The transwell inserts (Costar transwell inserts; Corning) were coated with a solution of 0.1% gelatin (Sigma) in PBS at 4° C. overnight and then air-dried. VEGF at 50 ng/mL (1.1 nM) or recombinant Am-Nogo-B at various concentrations dissolved in medium 199 containing 0.1% BSA was added in the bottom chamber of the Boyden apparatus. HUVEC (200,000 cells) suspended in a 100 μL aliquot of medium 199 containing 0.1% BSA was added to the upper chamber. After 5 hours incubation, cells on both sides of the membrane were fixed and stained with a Diff-Quik staining kit (Baxter Healthcare, Miami, Fla.). The average number of cells from five randomly chosen high-power (×400) fields on the lower side of the membrane was counted.
Using the method described above, CHO cells and CHO cells expressing NgBR were placed into a Boyden chamber and the chemotactic response to soluble Am-Nogo-B was examined.

A549 cells [3] = test: Tumors of A549 cells engineered to secrete Am-Nogo-B in immunodeficient mice; assay type: in vivo
HUVEC [4] = test: HUVEC migration in modified Boyden chambers; assay type: cell-based, human; settings: recombinant Am-Nogo-B at various concentrations, 5 hours; similar in magnitude to 1.1 nM VEGF
Protocol: The migratory response of human umbilical vein endothelial cells (HUVEC) in response to a gradient of recombinant, purified alkaline phosphatase (AP) fusion protein expressing Am-Nogo-B or a recombinant purified Am-Nogo-B was examined. HUVEC were cultured in M199 with 20% FBS and endothelial cell growth supplement (ECGS).
as §1

NgBR [5] = molecular target: T1, NgBR (Homo sapiens, UniProt Q96E22); test: AP fusion protein binding to COS cells transfected with the isolated NgBR cDNA; set-up: an isolated cDNA encoding NgBR is 2,636 base pairs encoding an open reading frame of 293 amino acids; expressed in transfected cells; host or cells: COS-7 (A4); settings: COS cells (FIG. 6)
T1 sequence (Q96E22 1-293): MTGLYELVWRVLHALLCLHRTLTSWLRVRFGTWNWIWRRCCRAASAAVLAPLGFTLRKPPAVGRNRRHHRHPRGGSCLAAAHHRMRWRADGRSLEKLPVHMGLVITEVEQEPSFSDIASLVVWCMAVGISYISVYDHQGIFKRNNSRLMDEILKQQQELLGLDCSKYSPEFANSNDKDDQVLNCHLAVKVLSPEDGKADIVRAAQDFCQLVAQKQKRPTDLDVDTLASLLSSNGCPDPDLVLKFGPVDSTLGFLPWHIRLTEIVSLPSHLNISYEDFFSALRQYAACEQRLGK
Protocol: (§2) To detect AP-Am-Nogo-B binding, cultures were washed with Hanks' balanced salt solution (HBSS) containing 20 mM HEPES, pH 7.5, and 1 mg/mL BSA (HBH). The plates were then incubated with AP-Am-Nogo-B in DMEM containing 20 mM Hepes, pH 7.5, and 1 mg/mL BSA for 2 hours at 4° C. The bound AP-Am-Nogo-B was detected by using the Blue Substrate kit (Vector Laboratories). The blue staining was examined by using the ODYSSEY Infrared Imaging System (Li-Cor, Lincoln, Nebr.) and confirmed by microscopy. Alternatively, the bound AP-Am-Nogo-B was extracted with Triton X-100, and AP activity was colorimetrically quantified by using p-nitrophenyl phosphate (Sigma) as substrate after heat inactivation of endogenous AP. Non-specific binding was determined by measuring binding in the presence of a 100-fold molar excess of recombinant Am-Nogo-B lacking the AP fusion protein. Specific binding was determined by subtracting the non-specific binding from total binding. For determination of apparent Kd, the binding of AP-Am-Nogo-B was measured in triplicate as described above and the Kd value was quantified by using the Scatchard plot program of GraphPad PRISM (one-site binding, linear regression) using the ratio of bound ligand to free ligand as the y axis and bound ligand (pM) as the x axis.
For expression cloning of Am-Nogo-B receptor, pools of 5,000 arrayed clones from a human heart cDNA library (OriGene Technologies, Rockville, Md.) were transfected into COS-7 cells, and AP-Am-Nogo-B binding was assessed by using AP versus AP-Am-Nogo-B binding and detection of the AP product by near-infrared cell imaging (Li-Cor, Lincoln, Nebr.) or AP activity assays.
Single NgBR cDNA clones were isolated by sib selection and sequenced. […] The HA-tagged NgBR was immunoisolated with anti-HA immunobeads (Roche, Indianapolis, Ind.) and associated proteins analyzed by Western blotting. For the Western blots, expression of NgBR-HA was detected by using anti-HA (Roche) and NgBR (Imgenex), respectively, and beta-actin (Sigma) or Hsp90 (BD Biosciences-Pharmingen) was used to control for loading.

NgBR-HA = molecular target: T2, NgBR-HA (Homo sapiens, UniProt Q96E22); test: Immunoisolation of NgBR-HA from CHO cell extracts incubated with purified Am-Nogo-B, Western blot; assay type: binding; settings: lysates of vector or NgBR-HA-transfected CHO cells, 25 μg Am-Nogo-B-myc
T2 construct: CHO cells stably expressing full-length NgBR with a C-terminal HA tag (CHO-NgBR-HA); expressed in transfected cells; host or cells: CHO
T2 sequence (Q96E22 1-293): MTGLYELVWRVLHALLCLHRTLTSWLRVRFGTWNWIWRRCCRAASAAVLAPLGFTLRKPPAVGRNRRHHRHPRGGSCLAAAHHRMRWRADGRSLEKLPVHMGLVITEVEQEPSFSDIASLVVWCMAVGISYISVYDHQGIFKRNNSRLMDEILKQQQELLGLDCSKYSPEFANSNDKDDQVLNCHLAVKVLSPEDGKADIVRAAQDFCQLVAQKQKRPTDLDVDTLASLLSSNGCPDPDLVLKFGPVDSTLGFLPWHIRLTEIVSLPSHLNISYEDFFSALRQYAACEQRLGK
Protocol: Single NgBR cDNA clones were isolated by sib selection and sequenced. A NgBR-HA was created in pIRESneo vector (BD, Palo Alto, Calif.), with the HA tag at the carboxy terminus. To access the physical interaction of NgBR with Am-Nogo-B, 50 μg of solubilized extracts of CHO cells expressing control vector (pIRESneo) or NgBR-HA was incubated with 25 μg of purified Am-Nogo-B or buffer for 2 hours at room temperature. The HA-tagged NgBR was immunoisolated with anti-HA immunobeads (Roche, Indianapolis, Ind.) and associated proteins analyzed by Western blotting. For the Western blots, expression of NgBR-HA was detected by using anti-HA (Roche) and NgBR (Imgenex), respectively, and beta-actin (Sigma) or Hsp90 (BD Biosciences-Pharmingen) was used to control for loading.

HUVEC [6] = test: Tube formation of HUVEC in 3-D collagen cultures (total network length); assay type: cell-based, human; settings: Am-Nogo-B 80 nM, 1-2 days
Protocol: HUVEC were resuspended (final concentration of 1×10^6) in a mixture containing rat tail type I collagen (1.5 mg/mL) 1/10 volume of 10×M199 and 1 M Hepes, neutralized with NaOH. Droplets (0.1 mL each) of the cell/collagen mixture were placed in cell culture dishes and allowed to polymerize for 15 minutes at 37° C. Growth medium containing either vehicle or agonist was then added to each well. HUVEC were allowed to form tube-like structures for 1-2 days. To evaluate tube formation in 3-D cultures, cells were photographed using the program OPENLAB (Improvision) and total-network length, defined as an elongation of cell into tube-like structures typically seen in 3-D cultures, was quantified in five fields for each replicate per experiment by using the measurement tools provided with OPENLAB.

NgBR [7] = molecular target: T1, NgBR; test: AP fusion protein binding to CHO cells expressing NgBR; set-up: an isolated cDNA encoding NgBR is 2,636 base pairs encoding an open reading frame of 293 amino acids; expressed in transfected cells; settings: increasing concentrations of purified Am-Nogo-B
Protocol: as §2
A recombinant AP-Am-Nogo-B fusion protein was used to screen a cDNA expression library from human heart (500,000 independent clones) transfected into COS or CHO cells using Lipofectamine 2000 (Invitrogen). COS-7 cells were cultured in high-glucose DMEM with 10% FBS. CHO cells were cultured in MEM-α with 5% FBS.

[8] = A549 tumors expressing Am-Nogo-B

B1: Am-Nogo-B: Residues 1-200 of Nogo-B, the amino terminus; recombinant, purified, with Myc-His tag (protein)
chain: MEDLDQSPLVSSSDSPPRPQPAFKYQFVREPEDEEEEEEEEEEDEDEDLEELEVLERKPAAGLSAAPVPTAPAAGAPLMDFGNDFVPPAPRGPLPAAPPVAPERQPSWDPSPVSSTVPAPSPLSAAAVSPSKLPEDDEPPARPPPPPPASVSPQAEPVWTPPAPAPAAPPSTPAAPKRRGSSGSVVVDLLYWRDIKKTGV
modifications: left off: small tags and cut ends
notes: Residues 1-200 of Nogo-B, the amino terminus; recombinant, purified, with Myc-His tag
With B1 the “basal growth of A549 cells in culture” value (A549 cells [1]) was “did not effect the basal growth”, the “chemotactic response to soluble Am-Nogo-B” value [2] was “transfection of NgBR was required” and the “growth rate of tumors in vivo” value (A549 cells [3]; A549 cells secreting Am-Nogo-B versus vector control, immunodeficient mice) was “increased the growth rate of tumors”. For the same molecule, the “lymphangiogenesis (LYVE-1 staining)” value (A549 cells [3]; [8]) was “reduced lymphangiogenesis”, the “tumor angiogenesis (PECAM-1-positive tumor cells)” value (A549 cells [3]; [8]) was “increased angiogenesis” and the “tumor associated macrophages (F4/80 positive cells)” value (A549 cells [3]; [8]) was “increase tumor associated macrophages”. For the same molecule, the “HUVEC migration, dose dependence” value (HUVEC [4]) was “dose-dependently increases migration”, the “binding to COS cells transfected with the isolated NgBR cDNA” value (NgBR [5]) was “afforded the binding” and the “physical interaction with NgBR-HA (immunopurification)” value (NgBR-HA) was “interacted with lysates only when the receptor was expressed”. The tube formation (HUVEC [6]) was “stimulated an increase in tube formation” and the “displacement of the binding of 10 nM AP-Am-Nogo-B from transfected CHO cells” value (NgBR [7]) was “dose-dependently displaced”.
